Consider three molecules from article PMC7721737, “Cytosolic sequestration of the vitamin D receptor as a therapeutic option for vitamin D-induced hypercalcemia” (Nature Communications, 2020).

Experiment [1] has as its target T1, full-length human vitamin D receptor (hVDR, amino acid 1-427), His-tagged (human, UniProt P11473 1-427).
T1 construct: For microscale thermophoresis the protein was labelled with the Red-NHS second generation labelling kit (NanoTemper); also called NR1I1; hVDR full-length; source: E. coli BL21 DE3, purified (HisTrap, SEC)
T1 sequence (looked up): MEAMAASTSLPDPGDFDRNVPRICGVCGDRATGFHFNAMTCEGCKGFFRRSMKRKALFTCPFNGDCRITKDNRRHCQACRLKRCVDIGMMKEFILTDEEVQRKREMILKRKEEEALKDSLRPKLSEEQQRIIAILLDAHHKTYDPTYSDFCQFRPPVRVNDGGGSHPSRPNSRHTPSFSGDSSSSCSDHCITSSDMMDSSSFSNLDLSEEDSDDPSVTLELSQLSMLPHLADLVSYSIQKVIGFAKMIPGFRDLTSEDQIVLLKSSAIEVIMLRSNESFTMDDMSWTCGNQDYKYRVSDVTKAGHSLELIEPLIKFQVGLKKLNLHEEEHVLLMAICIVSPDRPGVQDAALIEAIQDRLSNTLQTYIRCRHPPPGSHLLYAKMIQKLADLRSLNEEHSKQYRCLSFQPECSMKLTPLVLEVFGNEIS
As to the kind of experiment: SEC; mixed in stoichiometric amounts and purified on HiLoad Superdex 200 in 20 mM Tris pH 8.0, 75 mM NaCl, 75 mM KCl, 2 mM CHAPS, 5% glycerol, 4 mM MgSO4, 1 mM TCEP; heterodimer then used for HDX-MS (apo, 1,25D3, ZK). Conditions: both partners purified. In general terms: SEC sorts molecules by how far they enter the pores of the column.

For experiment [2], the target named is T2, full-length human vitamin D receptor (hVDR, amino acid 1-427), His-tagged (human, UniProt P11473 1-427).
T2 chain: T1 sequence (looked up)
As to the kind of experiment: MST; ZK-bound VDR.

For experiment [3], the target named is T1, full-length human vitamin D receptor …. Briefly: MST; Monolith NT.115; 10 nM Red-NHS labelled full-length hVDR with or without ZK; unlabelled WBP4 122-196 from 100 µM to 1 nM; 20 mM Hepes pH 7.5, 200 mM NaCl, 2% glycerol, 1 mM TCEP, 0.05% Tween 20; 25 °C; 1:1 fit, apparent Kd. Conditions: both partners purified.
Experiment [4] has as its target T3, ligand binding domain of hVDR (aa 118-427), His-tagged (human, UniProt P11473 118-427).
T3 construct: also called hVDR LBD; source: E. coli BL21 DE3, purified (HisTrap, SEC)
T3 sequence (looked up): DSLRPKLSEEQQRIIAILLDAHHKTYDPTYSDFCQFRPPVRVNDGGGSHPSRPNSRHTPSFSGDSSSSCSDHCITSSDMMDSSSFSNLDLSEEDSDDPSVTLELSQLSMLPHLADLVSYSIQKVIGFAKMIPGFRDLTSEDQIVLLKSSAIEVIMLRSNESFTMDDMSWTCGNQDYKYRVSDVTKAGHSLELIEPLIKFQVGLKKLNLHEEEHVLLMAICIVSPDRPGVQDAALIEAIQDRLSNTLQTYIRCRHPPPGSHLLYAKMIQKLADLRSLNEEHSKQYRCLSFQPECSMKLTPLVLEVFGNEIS
As to the kind of experiment: SPR; Biacore T200, hRXRα LBD monomers amine-coupled on CM5 (400-500 RU); hVDR LBD 1-30 µM without ligand or with a 3-fold excess of 1,25D3 or ZK; 50 mM Tris pH 7.5, 150 mM NaCl, 1 mM TCEP, 0.005% Tween 20; steady state fit. Conditions: both partners purified. In general terms: Surface plasmon resonance follows binding to a sensor surface in real time, without labels.

B1: N-terminal domain truncated human RXRalpha (hRXRαΔNTD, amino acid 130-462), His-tagged (domain or fragment, UniProt P19793 130-462, looked up)
chain: FTKHICAICGDRSSGKHYGVYSCEGCKGFFKRTVRKDLTYTCRDNKDCLIDKRQRNRCQYCRYQKCLAMGMKREAVQEERQRGKDRNENEVESTSSANEDMPVERILEAELAVEPKTETYVEANMGLNPSSPNDPVTNICQAADKQLFTLVEWAKRIPHFSELPLDDQVILLRAGWNELLIASFSHRSIAVKDGILLATGLHVHRNSAHSAGVGAIFDRVLTELVSKMRDMQMDKTELGCLRAIVLFNPDSKGLSNPAEVEALREKVYASLEAYCKHKYPEQPGRFAKLLLRLPALRSIGLKCLEHLFFFKLIGDTPIDTFLMEMLEAPHQMT
notes: source: E. coli BL21 DE3, purified (HisTrap, SEC)
As to B1, the binding result in experiment [1] was “binds”.

B2: hWBP4 polypeptide (amino acid 122-196) encompassing the two WW domains (domain or fragment, human, UniProt O75554 122-196, looked up)
chain: DPSKGRWVEGITSEGYHYYYDLISGASQWEKPEGFQGDLKKTAVKTVWVEGLSEDGFTYYYNTETGESRWEKPDD
notes: also called FBP21; source: E. coli BL21 DE3, purified (glutathione sepharose, thrombin cleavage, SEC); not shown: GST, N-terminal, cleaved
Molecule B2 yielded a Kd in experiment [2] of 11 µM. Besides, in experiment [3], the “fold increase of the affinity in the presence of ZK against without ZK” value was approximately 2 fold.

B3: ligand binding domain of hRXRα (aa 223-462), His-tagged (domain or fragment, human, UniProt P19793 223-462, looked up)
chain: TSSANEDMPVERILEAELAVEPKTETYVEANMGLNPSSPNDPVTNICQAADKQLFTLVEWAKRIPHFSELPLDDQVILLRAGWNELLIASFSHRSIAVKDGILLATGLHVHRNSAHSAGVGAIFDRVLTELVSKMRDMQMDKTELGCLRAIVLFNPDSKGLSNPAEVEALREKVYASLEAYCKHKYPEQPGRFAKLLLRLPALRSIGLKCLEHLFFFKLIGDTPIDTFLMEMLEAPHQMT
notes: Immobilised as monomers on the SPR chip; also called hRXRα LBD; source: E. coli BL21 DE3, purified (HisTrap, SEC)
Take B3: in experiment [4], the binding result was “binds”.

The term Kd denotes the constant that tells how readily two partners part at equilibrium.
